Test results as given in publication PMC5159557 (Nucleic Acids Research, 2016).

B1: Cse2 subunit of Escherichia coli type I-E Cascade, N-terminally fused to Strep-Tag II (natural protein)
chain: MADEIDAMALYRAWQQLDNGSCAQIRRVSEPDELRDIPAFYRLVQPFGWENPRHQQALLRMVFCLSAGKNVIRHQDKKSEQTTGISLGRALANSGRINERRIFQLIRADRTADMVQLRRLLTHAEPVLDWPLMARMLTWWGKRERQQLLEDFVLTTNKNA

Tests used:
Experiment in all cases: native MS
[1] = molecular target: Cas7 subunit of Escherichia coli type I-E Cascade (Escherichia coli)
[2] = molecular target: T1, Cas5 subunit of Escherichia coli type I-E Cascade (Escherichia coli, UniProt Q46898 1-224)
T1 sequence: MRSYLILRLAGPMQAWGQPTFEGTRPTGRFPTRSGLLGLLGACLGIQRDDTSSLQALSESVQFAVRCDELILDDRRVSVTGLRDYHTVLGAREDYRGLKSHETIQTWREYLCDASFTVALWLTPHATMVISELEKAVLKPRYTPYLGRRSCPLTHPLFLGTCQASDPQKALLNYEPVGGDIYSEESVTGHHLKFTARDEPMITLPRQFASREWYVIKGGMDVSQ

[3] = molecular target: T2, Cas6e subunit of Escherichia coli type I-E Cascade (Escherichia coli, UniProt Q46897 1-199)
T2 sequence: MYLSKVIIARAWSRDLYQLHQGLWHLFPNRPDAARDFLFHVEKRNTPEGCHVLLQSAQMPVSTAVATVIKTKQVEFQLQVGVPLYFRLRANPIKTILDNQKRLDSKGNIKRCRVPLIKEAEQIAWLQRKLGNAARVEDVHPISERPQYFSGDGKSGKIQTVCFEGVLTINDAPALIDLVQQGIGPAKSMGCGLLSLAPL

| Molecule | stoichiometry N [1] | binding result [2] | binding result [3] |
| --- | --- | --- | --- |
| Cas7 subunit of Escherichia coli type I-E Cascade (natural protein) | 6 | – | – |
| B1 | – | binds | binds |
